Experimental data: the Human Domainome abundance scans (Beltran et al. 2025)
± gives the uncertainty stated by the source.

Test: abundance fitness (aPCA) (normalised: wild type 0, dead -1); higher = more abundant; growth selection in yeast, the domain comes from the species named
Conditions: Homo sapiens

| Substance | abundance fitness |
| --- | --- |
| BAG family molecular chaperone regulator 3 T47Q, O95817 | -0.741 ± 0.14 |
| BAG family molecular chaperone regulator 3 T47R, O95817 | -0.728 ± 0.13 |
| BAG family molecular chaperone regulator 3 T47V, O95817 | -0.302 ± 0.073 |
| BAG family molecular chaperone regulator 3 T48I, O95817 | -0.354 ± 0.14 |
| BAG family molecular chaperone regulator 3 V12A, O95817 | -0.03 ± 0.12 |
| BAG family molecular chaperone regulator 3 V12D, O95817 | 0.092 ± 0.16 |
| BAG family molecular chaperone regulator 3 V12E, O95817 | -0.594 ± 0.26 |
| BAG family molecular chaperone regulator 3 V12F, O95817 | 0.051 ± 0.19 |
| BAG family molecular chaperone regulator 3 V12G, O95817 | -0.443 ± 0.069 |
| BAG family molecular chaperone regulator 3 V12H, O95817 | -0.48 ± 0.33 |
| BAG family molecular chaperone regulator 3 V12I, O95817 | 0.446 ± 0.11 |
| BAG family molecular chaperone regulator 3 V12L, O95817 | 0.208 ± 0.066 |
| BAG family molecular chaperone regulator 3 V12M, O95817 | -0.393 ± 0.4 |
| BAG family molecular chaperone regulator 3 V12N, O95817 | 0.139 ± 0.15 |
| BAG family molecular chaperone regulator 3 V12Q, O95817 | 0.065 ± 0.16 |
| BAG family molecular chaperone regulator 3 V12R, O95817 | -0.594 ± 0.21 |
| BAG family molecular chaperone regulator 3 V12S, O95817 | -0.14 ± 0.15 |
| BAG family molecular chaperone regulator 3 V12T, O95817 | -0.52 ± 0.43 |

| Substance | abundance fitness |
| --- | --- |
| BAG family molecular chaperone regulator 3 V12W, O95817 | -0.571 ± 0.32 |
| BAG family molecular chaperone regulator 3 V12Y, O95817 | 0.199 ± 0.12 |
| BAG family molecular chaperone regulator 3 V40A, O95817 | -0.556 ± 0.17 |
| BAG family molecular chaperone regulator 3 V40C, O95817 | -0.269 ± 0.13 |
| BAG family molecular chaperone regulator 3 V40D, O95817 | -0.808 ± 0.42 |
| BAG family molecular chaperone regulator 3 V40E, O95817 | -0.661 ± 0.18 |
| BAG family molecular chaperone regulator 3 V40F, O95817 | -0.533 ± 0.4 |
| BAG family molecular chaperone regulator 3 V40G, O95817 | -0.541 ± 0.087 |
| BAG family molecular chaperone regulator 3 V40H, O95817 | -0.082 ± 0.17 |
| BAG family molecular chaperone regulator 3 V40I, O95817 | -0.084 ± 0.069 |
| BAG family molecular chaperone regulator 3 V40K, O95817 | -0.64 ± 0.098 |
| BAG family molecular chaperone regulator 3 V40L, O95817 | -0.664 ± 0.084 |
| BAG family molecular chaperone regulator 3 V40M, O95817 | 0.03 ± 0.16 |
| BAG family molecular chaperone regulator 3 V40N, O95817 | 0.081 ± 0.23 |
| BAG family molecular chaperone regulator 3 V40Q, O95817 | -0.642 ± 0.13 |
| BAG family molecular chaperone regulator 3 V40R, O95817 | -0.637 ± 0.13 |
| BAG family molecular chaperone regulator 3 V40S, O95817 | -0.745 ± 0.21 |
| BAG family molecular chaperone regulator 3 V40T, O95817 | -0.959 ± 0.24 |
